Experimental data from paper PMC3650583, “Dissection of Pilus Tip Assembly by the FimD Usher Monomer” (Journal of Molecular Biology, 2013).

How the values were obtained:
[1] = target: FimG (Escherichia coli (uropathogenic)) (UniProt P08190); assay: donor strand exchange (DSE) assay, SDS-PAGE of the SDS-stable subunit:subunit product; 20 °C; 500 nM usher complex (acceptor subunit last in FimD:FimC:...) and 5 μM chaperone:subunit complex (donor), one subunit labelled with Alexa 647; quenched with HCl (quench flow for the fast reactions); fitted to Eq. (1) with KinTek Explorer
[2] = target: FimH (Escherichia coli (uropathogenic)) (UniProt P08191); assay: as above
[3] = target: FimF (Escherichia coli (uropathogenic)) (UniProt P08189); assay: as above
[4] = target: FimD:FimC:FimH complex (Escherichia coli (uropathogenic)) (UniProt P30130); assay: AUC; sedimentation velocity of purified FimD:FimC:FimH at the higher concentrations (> 1 μM, up to 4.3 μM); 20 °C, 42,000 rpm, absorbance optics; 50 mM Tris pH 8.0, 150 mM NaCl, 1 mM EDTA, 0.05% DDM; c(s) by SedFit; Kd of usher dimerisation (dimer to monomers) estimated by integrating the monomer and dimer peaks at 4.3 μM
[5] = target: the molecule itself; assay: AUC; sedimentation velocity of FimD alone at 5 μM and 2 μM; 20 °C, 42,000 rpm; 50 mM Tris pH 8.0, 150 mM NaCl, 1 mM EDTA, 0.05% DDM; monomer to dimer
[6] = target: the molecule itself; assay: donor strand exchange (DSE) assay, SDS-PAGE of the SDS-stable subunit:subunit product; spontaneous (non-usher mediated) formation of FimG polymers from FimC:FimG during the slow reactions
[7] = target: FimF^Q99C[A647] (Escherichia coli (uropathogenic)); assay: donor strand exchange (DSE) assay, SDS-PAGE of the SDS-stable subunit:subunit product; 20 °C; 500 nM usher complex (acceptor subunit last in FimD:FimC:...) and 5 μM chaperone:subunit complex (donor), one subunit labelled with Alexa 647; quenched with HCl (quench flow for the fast reactions); fitted to Eq. (1) with KinTek Explorer
FimF [8] = target: T1, FimF (Escherichia coli (uropathogenic), UniProt P08189 21-176); assay: donor strand exchange (DSE) assay, SDS-PAGE of the SDS-stable subunit:subunit product; 20 °C; FimD:FimC:FimH:FimG and FimC:FimF both unlabelled; silver staining and densitometry of the FimH:FimG:FimF product; settings: both partners purified
T1 construct: also called unlabelled FimF; FimC:FimF (as chaperone complex)
T1 sequence: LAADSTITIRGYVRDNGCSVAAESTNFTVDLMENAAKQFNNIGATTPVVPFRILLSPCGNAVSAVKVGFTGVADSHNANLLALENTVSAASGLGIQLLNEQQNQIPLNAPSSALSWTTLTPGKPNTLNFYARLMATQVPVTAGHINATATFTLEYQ

FimF [9] = target: T1, FimF; assay: donor strand exchange (DSE) assay, SDS-PAGE of the SDS-stable subunit:subunit product; 20 °C; 500 nM usher complex (acceptor subunit last in FimD:FimC:...) and 5 μM chaperone:subunit complex (donor), one subunit labelled with Alexa 647; quenched with HCl (quench flow for the fast reactions); fitted to Eq. (1) with KinTek Explorer; settings: both partners purified

FimF^Q99C[A647] (natural protein)
kDSE (rate of donor strand exchange, 20 °C) [1]: 0.0527 s⁻¹
kDSE (rate of donor strand exchange, 20 °C) [2]: 0.972 s⁻¹
kDSE (rate of donor strand exchange, 20 °C) [3]: 0.00598 s⁻¹

FimD:FimC:FimH complex (from UniProt P30130;P31697;P08191)
Kd [4]: 20 µM

B1: FimD usher (natural protein)
chain: DLYFNPRFLADDPQAVADLSRFENGQELPPGTYRVDIYLNNGYMATRDVTFNTGDSEQGIVPCLTRAQLASMGLNTASVAGMNLLADDACVPLTTMVQDATAHLDVGQQRLNLTIPQAFMSNRARGYIPPELWDPGINAGLLNYNFSGNSVQNRIGGNSHYAYLNLQSGLNIGAWRLRDNTTWSYNSSDRSSGSKNKWQHINTWLERDIIPLRSRLTLGDGYTQGDIFDGINFRGAQLASDDNMLPDSQRGFAPVIHGIARGTAQVTIKQNGYDIYNSTVPPGPFTINDIYAAGNSGDLQVTIKEADGSTQIFTVPYSSVPLLQREGHTRYSITAGEYRSGNAQQEKTRFFQSTLLHGLPAGWTIYGGTQLADRYRAFNFGIGKNMGALGALSVDMTQANSTLPDDSQHDGQSVRFLYNKSLNESGTNIQLVGYRYSTSGYFNFADTTYSRMNGYNIETQDGVIQVKPKFTDYYNLAYNKRGKLQLTVTQQLGRTSTLYLSGSHQTYWGTSNVDEQFQAGLNTAFEDINWTLSYSLTKNAWQKGRDQMLALNVNIPFSHWLRSDSKSQWRHASASYSMSHDLNGRMTNLAGVYGTLLEDNNLSYSVQTGYAGGGDGNSGSTGYATLNYRGGYGNANIGYSHSDDIKQLYYGVSGGVLAHANGVTLGQPLNDTVVLVKAPGAKDAKVENQTGVRTDWRGYAVLPYATEYRENRVALDTNTLADNVDLDNAVANVVPTRGAIVRAEFKARVGIKLLMTLTHNNKPLPFGAMVTSESSQSSGIVADNGQVYLSGMPLAGKVQVKWGEEENAHCVANYQLPPESQQQLLTQLSAECR
notes: also called apo FimD; the usher; source: in 0.05% DDM
stoichiometry N [5]: 2

B2: FimG (natural protein)
chain: ADVTITVNGKVVAKPCTVSTTNATVDLGDLYSFSLMSAGAASAWHDVALELTNCPVGTSRVTASFSGAADSTGYYKNQGTAQNIQLELQDDSGNTLNTGATKTVQVDDSSQSAHFPLQVRALTVNGGATQGTIQAVISITYTYS
notes: also called unlabelled FimG; FimC:FimG (as chaperone complex)
binding result [6]: binds
kDSE (rate of donor strand exchange, 20 °C) [7]: 0.00543 s⁻¹
binding result (FimF [8]): binds

B3: FimG^S92C[A647] (natural protein)
chain: ADVTITVNGKVVAKPCTVSTTNATVDLGDLYSFSLMSAGAASAWHDVALELTNCPVGTSRVTASFSGAADSTGYYKNQGTAQNIQLELQDDCGNTLNTGATKTVQVDDSSQSAHFPLQVRALTVNGGATQGTIQAVISITYTYS
modifications: fluorescent Alexa 647 label at position 92 (on S92C)
binding result (FimF [9]): binds
